Measurements: paper PMC12422189, “Molecular exaptation by the integrin αI domain” (Science Advances, 2025)

Experiments:
[1] = biological target: integrin αLβ2 with the αL internal ligand IEGT replaced by VDGT (UniProt P20701); assay: flow cytometry on cells; HEK293T cells transfected with αL variants and β2; 20 mM tris-HCl pH 7.4, 150 mM NaCl, 1 mM MgCl2 + 1 mM MnCl2; purified His-tagged ICAM-1 ectodomain at 20 μg/ml, 1 hour at 37°C; read with iFluor 647 anti-His tag antibody; percent positive cells normalized to wild type
[2] = biological target: T1, Fc-tagged E-cadherin ectodomain (UniProt P12830 155-698); assay: BLI; Octet RED, 25°C; Fc-tagged E-cadherin ectodomain loaded on Protein A biosensors; αEβ7 in solution, two-fold series 500 to 16.125 nM; activating buffer with 0.1% BSA and 0.02% Tween 20; 1:1 model, global fit of three replicates; details: both partners purified
T1 construct: Fc tag amplified from Addgene plasmid 145164; E-cadherin insert a gift from B. Gumbiner; Captured on Protein A biosensors by the Fc; also called Human Fc-tagged E-cadherin ectodomain; source: ExpiCHO, secreted, purified (HiTrap Protein G, Superdex 200); not shown: Fc (human), C-terminal, kept
T1 sequence (looked up): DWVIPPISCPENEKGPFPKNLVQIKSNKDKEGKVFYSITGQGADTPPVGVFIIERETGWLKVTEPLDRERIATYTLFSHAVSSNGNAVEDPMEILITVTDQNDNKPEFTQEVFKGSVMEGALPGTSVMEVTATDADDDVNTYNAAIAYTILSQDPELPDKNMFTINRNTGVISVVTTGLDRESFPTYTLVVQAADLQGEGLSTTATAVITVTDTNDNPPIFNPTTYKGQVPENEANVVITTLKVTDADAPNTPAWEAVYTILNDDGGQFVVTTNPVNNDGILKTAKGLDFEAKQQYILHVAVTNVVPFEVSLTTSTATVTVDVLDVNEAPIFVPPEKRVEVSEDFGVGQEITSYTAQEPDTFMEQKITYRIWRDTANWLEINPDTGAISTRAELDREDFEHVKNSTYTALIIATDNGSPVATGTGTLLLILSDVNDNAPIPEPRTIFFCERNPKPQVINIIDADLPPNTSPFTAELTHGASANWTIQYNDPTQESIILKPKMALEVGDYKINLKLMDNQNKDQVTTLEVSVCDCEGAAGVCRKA

integrin αLβ2 with the αL internal ligand IEGT replaced by VDGT, sequence (P20701 26-1170, chain 1 of 2): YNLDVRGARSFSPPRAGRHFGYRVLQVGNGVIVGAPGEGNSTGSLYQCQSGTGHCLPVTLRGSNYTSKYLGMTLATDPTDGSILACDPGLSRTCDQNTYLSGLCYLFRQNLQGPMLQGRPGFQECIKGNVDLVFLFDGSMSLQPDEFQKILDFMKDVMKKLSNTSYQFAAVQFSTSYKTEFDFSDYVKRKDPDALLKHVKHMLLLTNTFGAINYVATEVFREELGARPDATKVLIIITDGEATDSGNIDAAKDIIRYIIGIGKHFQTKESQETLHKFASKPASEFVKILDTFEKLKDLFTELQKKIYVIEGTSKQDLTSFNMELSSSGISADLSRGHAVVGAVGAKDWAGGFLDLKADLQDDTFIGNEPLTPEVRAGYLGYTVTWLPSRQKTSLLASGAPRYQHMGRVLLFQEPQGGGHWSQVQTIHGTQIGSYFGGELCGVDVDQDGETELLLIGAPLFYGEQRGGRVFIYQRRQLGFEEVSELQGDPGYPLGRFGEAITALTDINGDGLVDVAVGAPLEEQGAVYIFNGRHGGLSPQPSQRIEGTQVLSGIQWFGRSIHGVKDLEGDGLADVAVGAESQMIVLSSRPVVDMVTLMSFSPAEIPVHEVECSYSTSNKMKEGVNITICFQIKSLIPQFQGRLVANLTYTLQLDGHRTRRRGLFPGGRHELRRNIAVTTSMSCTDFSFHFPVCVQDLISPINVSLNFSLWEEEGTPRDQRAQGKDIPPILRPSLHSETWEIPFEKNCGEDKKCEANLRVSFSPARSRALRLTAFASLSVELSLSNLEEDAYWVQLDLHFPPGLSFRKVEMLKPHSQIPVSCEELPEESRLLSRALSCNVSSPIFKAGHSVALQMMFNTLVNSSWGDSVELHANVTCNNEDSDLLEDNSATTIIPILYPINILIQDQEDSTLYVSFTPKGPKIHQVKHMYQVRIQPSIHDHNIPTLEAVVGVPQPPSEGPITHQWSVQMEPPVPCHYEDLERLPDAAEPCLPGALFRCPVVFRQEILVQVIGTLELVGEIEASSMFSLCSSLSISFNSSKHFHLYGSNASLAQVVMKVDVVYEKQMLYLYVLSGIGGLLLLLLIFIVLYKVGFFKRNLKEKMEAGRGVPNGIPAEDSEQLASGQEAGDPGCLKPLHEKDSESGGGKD
integrin αLβ2 with the αL internal ligand IEGT replaced by VDGT, sequence (P05107 23-769, chain 2 of 2, further chain): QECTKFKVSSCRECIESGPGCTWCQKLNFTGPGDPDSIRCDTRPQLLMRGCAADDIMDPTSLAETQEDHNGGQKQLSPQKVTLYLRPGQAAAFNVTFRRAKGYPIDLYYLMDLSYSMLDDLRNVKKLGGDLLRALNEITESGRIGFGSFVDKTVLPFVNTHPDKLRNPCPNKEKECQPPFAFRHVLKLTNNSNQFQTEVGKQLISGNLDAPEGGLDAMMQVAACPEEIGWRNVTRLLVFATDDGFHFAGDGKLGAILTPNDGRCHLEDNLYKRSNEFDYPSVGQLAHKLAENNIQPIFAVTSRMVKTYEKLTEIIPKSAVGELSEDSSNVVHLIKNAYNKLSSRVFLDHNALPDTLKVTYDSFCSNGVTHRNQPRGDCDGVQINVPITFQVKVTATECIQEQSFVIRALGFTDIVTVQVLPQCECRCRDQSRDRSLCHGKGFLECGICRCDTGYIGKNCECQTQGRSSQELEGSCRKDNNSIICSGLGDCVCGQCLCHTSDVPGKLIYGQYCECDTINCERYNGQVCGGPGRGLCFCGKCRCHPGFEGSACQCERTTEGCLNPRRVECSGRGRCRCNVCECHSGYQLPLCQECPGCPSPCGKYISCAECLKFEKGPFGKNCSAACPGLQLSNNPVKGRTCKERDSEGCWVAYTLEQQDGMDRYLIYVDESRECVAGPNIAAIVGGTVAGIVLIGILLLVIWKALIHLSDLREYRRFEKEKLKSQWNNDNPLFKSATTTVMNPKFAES

intercellular adhesion molecule-1 (ICAM-1) ectodomain, His-tagged (from UniProt P05362 28-480) (ligand)
ligand binding, percent of wild type [1]: 60%

B1: integrin αEβ7 (as used for biolayer interferometry) (complex)
chain 1: FNVDVARPWLTPKGGAPFVLSSLLHQDPSTNQTWLLVTSPRTKRTPGPLHRCSLVQDEILCHPVEHVPIPKGRHRGVTVVRSHHGVLICIQVLVRRPHSLSSELTGTCSLLGPDLRPQAQANFFDLENLLDPDARVDTGDCYSNKEGGGEDDVNTARQRRALEKEEEEDKEEEEDEEEEEAGTEIAIILDGSGSIDPPDFQRAKDFISNMMRNFYEKCFECNFALVQYGGVIQTEFDLRDSQDVMASLARVQNITQVGSVTKTASAMQHVLDSIFTSSHGSRRKASKVMVVLTDGGIFEDPLNLTTVINSPKMQGVERFAIGVGEEFKSARTARELNLIASDPDETHAFKVTNYMALDGLLSKLRYNIISMEGTVGDALHYQLAQIGFSAQILDERQVLLGAVGAFDWSGGALLYDTRSRRGRFLNQTAAAAADAEAAQYSYLGYAVAVLHKTCSLSYIAGAPRYKHHGAVFELQKEGREASFLPVLEGEQMGSYFGSELCPVDIDMDGSTDFLLVAAPFYHVHGEEGRVYVYRLSEQDGSFSLARILSGHPGFTNARFGFAMAAMGDLSQDKLTDVAIGAPLEGFGADDGASFGSVYIYNGHWDGLSASPSQRIRASTVAPGLQYFGMSMAGGFDISGDGLADITVGTLGQAVVFRSRPVVRLKVSMAFTPSALPIGFNGVVNVRLCFEISSVTTASESGLREALLNFTLDVDVGKQRRRLQCSDVRSCLGCLREWSSGSQLCEDLLLMPTEGELCEEDCFSNASVKVSYQLQTPEGQTDHPQPILDRYTEPFAIFQLPYEKACKNKLFCVAELQLATTVSQQELVVGLTKELTLNINLTNSGEDSYMTSMALNYPRNLQLKRMQKPPSPNIQCDDPQPVASVLIMNCRIGHPVLKRSSAHVSVVWQLEENAFPNRTADITVTVTNSNERRSLANETHTLQFRHGFVAVLSKPSIMYVNTGQGLSHHKEFLFHVHGENLFGAEYQLQICVPTKLRGLQVVAVKKLTRTQASTVCTWSQERACAYSSVQHVEEWHSVSCVIASDKENVTVAAEISWDHSEELLKDVTELQILGEISFNKSLYEGLNAENHRTKITVVFLKDEKYH
chain 2: ELDAKIPSTGDATEWRNPHLSMLGSCQPAPSCQKCILSHPSCAWCKQLNFTASGEAEARRCARREELLARGCPLEELEEPRGQQEVLQDQPLSQGARGEGATQLAPQRVRVTLRPGEPQQLQVRFLRAEGYPVDLYYLMDLSYSMKDDLERVRQLGHALLVRLQEVTHSVRIGFGSFVDKTVLPFVSTVPSKLRHPCPTRLERCQSPFSFHHVLSLTGDAQAFEREVGRQSVSGNLDSPEGGFDAILQAALCQEQIGWRNVSRLLVFTSDDTFHTAGDGKLGGIFMPSDGHCHLDSNGLYSRSTEFDYPSVGQVAQALSAANIQPIFAVTSAALPVYQELSKLIPKSAVGELSEDSSNVVQLIMDAYNSLSSTVTLEHSSLPPGVHISYESQCEGPEKREGKAEDRGQCNHVRINQTVTFWVSLQATHCLPEPHLLRLRALGFSEELIVELHTLCDCNCSDTQPQAPHCSDGQGHLQCGVCSCAPGRLGRLCECSVAELSSPDLESGCRAPNGTGPLCSGKGHCQCGRCSCSGQSSGHLCECDDASCERHEGILCGGFGRCQCGVCHCHANRTGRACECSGDMDSCISPEGGLCSGHGRCKCNRCQCLDGYYGALCDQCPGCKTPCERHRDCAECGAFRTGPLATNCSTACAHTNVTLALAPILDDGWCKERTLDNQLFFFLVEDDARGTVVLRVRPQEKGADH
modifications: Wild-type αE taken for BLI: the paper assigns wild-type to the E-cadherin complex and RRtoGG (R177G/R178G) only to the Fab complex; the BLI section does not state which was used. Signal peptides …
Kd [2]: 51 ± 7.9 nM
